Data on 2 molecules can be found in patent US20110144312A1 (Kyowa Kirin, published 2011).

For assay [1], the target named is T1, human IL-10Rα on cells (human, UniProt Q13651 22-578).
T1 construct: Full-length entry with signal peptide; endogenous on PBMC and RPMI-8226 cells, transfected in EL-4 and CHO-K1 cells; also called IL-10R on RPMI-8226 cells; IL-10Rα on human PBMC, lymphocytes and monocytes
T1 sequence: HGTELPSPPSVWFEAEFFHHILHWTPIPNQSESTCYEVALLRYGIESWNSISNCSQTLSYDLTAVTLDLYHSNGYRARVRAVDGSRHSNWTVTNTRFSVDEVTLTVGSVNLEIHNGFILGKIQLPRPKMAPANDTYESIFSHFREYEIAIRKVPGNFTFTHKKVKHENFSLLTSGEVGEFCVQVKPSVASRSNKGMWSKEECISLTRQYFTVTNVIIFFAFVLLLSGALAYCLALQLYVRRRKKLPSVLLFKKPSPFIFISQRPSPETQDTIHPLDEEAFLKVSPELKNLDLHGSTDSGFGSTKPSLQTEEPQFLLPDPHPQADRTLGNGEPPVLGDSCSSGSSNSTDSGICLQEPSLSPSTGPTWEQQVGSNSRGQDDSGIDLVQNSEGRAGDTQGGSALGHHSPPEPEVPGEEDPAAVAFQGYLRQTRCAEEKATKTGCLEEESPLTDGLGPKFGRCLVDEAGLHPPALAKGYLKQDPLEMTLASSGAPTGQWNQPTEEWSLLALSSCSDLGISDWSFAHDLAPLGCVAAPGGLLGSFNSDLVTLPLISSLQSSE
As to the kind of experiment: flow cytometry, RPMI-8226 cells pre-incubated with biotinylated human IL-10 (competitor). On the procedure: IL-10 Blocking Assay: To determine if the anti-human IL-10Rα antibodies were blocked by binding of IL-10 to the receptor on the cell surface, a flow cytometric protocol was used. In the flow cytometric assay, RPMI-8226 cells were washed and resuspended in staining buffer and then incubated with biotinylated human IL-10 or a negative control protein (R&D Systems) for 30 minutes on ice. The anti-IL-10Rα antibodies were then added to the cells for an additional 30 minutes. The cells were washed and incubated with anti-human IgG conjugated to PE (Southern Biotech Associates) for 30 minutes. After another wash, the cells were fixed with 1% paraformaldehyde and analyzed on a FACS Calibur. The fold reduction in antibody binding was determined using the geometric mean fluorescence intensity in the following formula: Fold reduction=geometric mean fluorescence intensity in the absence of IL-10/geometric mean fluorescence intensity binding in presence of IL-10.
Recombinant IL-10 binding to the IL-10R expressed by RPMI-8226 cells reduced binding of the anti-human IL-10Rα antibodies (FIG. 3A). The reduction in antibody binding was similar for all antibodies tested. […] The fold reduction in binding by IL-10 (Table 3) was determined by dividing the geo mean of the antibody binding in the absence of IL-10 by the geo mean in the presence of IL-10. […]
A general note: A flow cytometer gives signals particle by particle.

In assay [2] the target is T2, mouse IL-10Rα on splenocytes (mouse, UniProt Q61727 17-575).
T2 construct: whole, on cells
T2 sequence (looked up): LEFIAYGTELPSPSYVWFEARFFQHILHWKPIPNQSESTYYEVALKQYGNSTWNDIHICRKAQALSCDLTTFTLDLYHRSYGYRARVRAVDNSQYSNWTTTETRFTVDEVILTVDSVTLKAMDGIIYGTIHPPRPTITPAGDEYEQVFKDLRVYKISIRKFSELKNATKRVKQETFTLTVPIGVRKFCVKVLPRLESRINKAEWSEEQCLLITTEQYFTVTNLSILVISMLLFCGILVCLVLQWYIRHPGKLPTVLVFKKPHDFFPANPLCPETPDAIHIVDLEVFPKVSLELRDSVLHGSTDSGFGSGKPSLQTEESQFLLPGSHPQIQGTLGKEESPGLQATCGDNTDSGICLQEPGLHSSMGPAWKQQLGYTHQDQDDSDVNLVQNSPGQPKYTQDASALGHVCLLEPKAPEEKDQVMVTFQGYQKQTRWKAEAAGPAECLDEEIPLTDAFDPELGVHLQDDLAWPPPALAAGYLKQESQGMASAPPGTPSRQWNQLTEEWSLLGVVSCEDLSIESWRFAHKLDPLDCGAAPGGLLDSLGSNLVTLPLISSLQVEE
Put plainly: flow cytometry on splenocytes.

In assay [3] the target is T3, SNP variant V233M of human IL-10Rα extracellular domain fused to the Fc portion of human IgG1 (human).
T3 construct: The entry already holds the change and includes the signal peptide
As to the kind of experiment: ELISA with SNP variant Fc fusion.

Assay [4] has as its target T1, human IL-10Rα on cells. As to the kind of experiment: flow cytometry on RPMI-8226 cells; detection anti-human IgG-PE [B]. The source says:
A) Titration of anti-IL-10Rα antibodies binding to coated human IL-10Rα:hFc. Binding was detected with anti-human kappa-HRP, anti-mouse IgG-HRP, or anti-rat IgG-HRP. […] RPMI-8226 cells were labeled with anti-human IL-10Rα antibodies at various concentrations and detected with anti-human IgG-PE. The commercial rat anti-human IL-10Rα antibody 3F9 was detected with anti-rat IgG-PE. The geometric mean fluorescence intensity (geo mean) data are shown.
The cells were washed once in staining buffer: PBS+2% FBS+0.01% NaN₃+10 mM EDTA, then blocked with 20 μg/ml rabbit IgG (Jackson Immunoresearch), resuspended in serum, supernatant, purified anti-human IL-10Rα antibodies, or isotype control antibodies in a final volume of 50 μl. The cells were incubated with the antibodies on ice for 20 minutes, washed twice in staining buffer then resuspended in an anti-human IgG secondary antibody for 20 minutes. […] If the biotinylated antibody was used, antibody binding was detected by labeling with streptavidin-phycoerythrin (SA-PE) for 20 minutes. Binding of rat and mouse anti-hIL-10Rα antibodies were detected with either biotinylated or PE conjugated anti-rat or anti-mouse IgG antibodies from multiple sources (Jackson Immunoresearch; Southern Biotech Associates; and BD Pharmingen, San Diego, Calif.). […]

The target in assay [5] is T4, SNP variant S159G of human IL-10Rα extracellular domain fused to the Fc portion of human IgG1 (human).
T4 construct: The entry already holds the change and includes the signal peptide
Put plainly: ELISA, coated SNP variant Fc fusion S159G [D]. For orientation: ELISA stands for enzyme-linked immunosorbent assay.

The target of assay [6] is T5, SNP variant R212E of human IL-10Rα extracellular domain fused to the Fc portion of human IgG1 (human).
T5 construct: The entry already holds the change and includes the signal peptide
As to the kind of experiment: ELISA, coated SNP variant Fc fusion R212E [E].

Numbering of substitutions follows the chain as printed.

T3 sequence (chain, as listed by the source V233M V233M limits assumed): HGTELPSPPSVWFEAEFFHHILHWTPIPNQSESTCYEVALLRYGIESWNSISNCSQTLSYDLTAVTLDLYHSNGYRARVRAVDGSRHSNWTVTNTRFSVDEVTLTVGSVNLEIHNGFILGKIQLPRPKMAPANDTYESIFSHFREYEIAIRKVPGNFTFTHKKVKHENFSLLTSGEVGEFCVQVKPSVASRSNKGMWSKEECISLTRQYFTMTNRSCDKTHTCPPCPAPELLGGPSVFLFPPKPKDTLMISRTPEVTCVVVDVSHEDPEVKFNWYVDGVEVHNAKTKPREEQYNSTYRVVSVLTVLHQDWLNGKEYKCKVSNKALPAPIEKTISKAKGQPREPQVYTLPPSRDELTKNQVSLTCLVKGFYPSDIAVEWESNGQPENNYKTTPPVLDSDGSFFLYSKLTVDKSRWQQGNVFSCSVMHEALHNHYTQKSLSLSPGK
T5 sequence (chain, as listed by the source R212E R212E limits assumed): as the sequence (chain, as listed by the source V233M V233M limits assumed) above, with R191E, M212V counted along it

B1: 136C5 (antibody, V domains shown)
VH: EVQLVESGGGLVQPGGSLRLSCAASGFTFSSYSMNWVRQAPGKGLEWVSYISTGSSTIYYADSVKGRFTISRDNAKNSLYLQMNSLRDEDTAVYYCARENYYGSGSYEDYFDYWGQGTLVTVSS
VL: EIVLTQSPATLSLSPGERATLSCRASQSVSSYLAWYQQKPGQAPRLLIYDASNRATGIPARFSGSGSGTDFTLTISSLEPEDFAVYYCQQRSNWPIFTFGPGTKVDIK
notes: Hybridoma antibody, human IgG1, kappa light chain; also called human anti-human IL-10Rα monoclonal antibody 136C5; hybridoma deposit PTA-9131
By EC50 (read off the curve) is commonly meant the concentration at which the effect is half-maximal. Read a high EC50 (read off the curve) as a less potent agent. With B1, the “Fold Reduction by IL-10” value with human IL-10Rα on cells [1] amounted to 1.88 fold. In addition, the binding result in assay [2] was “no binding”; in assay [3], “binds”. Also, the “EC50 (read off the curve)” value in the assay with human IL-10Rα on cells [4] is roughly 0.5 µg/mL.

B2: 136C8 (antibody, V domains shown)
VH: B1 VH with G54R
VL: B1 VL
notes: Hybridoma antibody, human IgG2, kappa light chain; also called human anti-human IL-10Rα monoclonal antibody 136C8; hybridoma deposit PTA-9132
As for B2, the “Fold Reduction by IL-10” value in the assay with human IL-10Rα on cells [1] amounted to 1.98 fold. For the same molecule, the figures for the binding result in assay [5], in assay [2] and in assay [6] were “binds”, “no binding” and “binds”, respectively. Besides, the “EC50 (read off the curve)” value with human IL-10Rα on cells [4] is roughly 0.5 µg/mL.
